The target of data set [1] is T1, PdhR (Escherichia coli, UniProt P0ACL9 1-254). Nature of the data set: EMSA.
In data set [2] the target is T1, PdhR. As to the kind of experiment: EMSA. The source holds these as a separate data set.

Like-named read-outs stand apart in the source and are kept apart here.

T1 sequence (P0ACL9 whole entry): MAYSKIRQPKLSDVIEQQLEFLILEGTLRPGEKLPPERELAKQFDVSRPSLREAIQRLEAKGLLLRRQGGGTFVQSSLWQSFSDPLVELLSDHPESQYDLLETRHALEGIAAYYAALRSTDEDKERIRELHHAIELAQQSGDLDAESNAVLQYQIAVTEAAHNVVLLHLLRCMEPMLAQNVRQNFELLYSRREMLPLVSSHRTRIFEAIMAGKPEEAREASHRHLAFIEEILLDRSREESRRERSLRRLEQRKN

B1: lipA site 1 probe (dsDNA)
DNA 1: GAAACGCTTTCCTTCGTAATTCGCAACTGGAACACGCACGCTATGAG
DNA 2: CTCATAGCGTGCGTGTTCCAGTTGCGAATTACGAAGGAAAGCGTTTC
As to B1, in the data set with PdhR [1], the binding result is listed as “no binding”.

B2: lipA site 2 probe (dsDNA)
DNA 1: CAAAAATAGTTGATAATTACAACAATCTATTGAATTGAAACGC
DNA 2: GCGTTTCAATTCAATAGATTGTTGTAATTATCAACTATTTTTG
Take B2: the binding result with PdhR [2] is “no binding”.

The values are drawn from PMC4134263.
